Substitutions are numbered along the chain they refer to.
Key:
[1] = target: TcdB 1285-1804 with C-terminal Avitag (RBD toxin fragment) (C. difficile, UniProt P18177 1285-1804); assay: SPR; conditions: both partners purified
TcdB2 (TcdB 027) = TcdB2 (TcdB 027) (C. difficile); assay: cell-based or functional assay
full length TcdB = full length TcdB (C. difficile, UniProt P18177 1-2366); assay: SPR; conditions: both partners purified
biotinylated RBD of TcsL [2] = target: T1, biotinylated RBD of TcsL (Paeniclostridium sordellii, UniProt Q46342 1-2364); assay: SPR; conditions: both partners purified
biotinylated RBD of TcsL [3] = target: T1, biotinylated RBD of TcsL; assay: SPR; conditions: both partners purified; remark: listed apart in the source
biotinylated RBD of TcsL [4] = target: T1, biotinylated RBD of TcsL; assay: SPR; conditions: both partners purified; remark: listed apart in the source

T1 sequence (Q46342 whole entry): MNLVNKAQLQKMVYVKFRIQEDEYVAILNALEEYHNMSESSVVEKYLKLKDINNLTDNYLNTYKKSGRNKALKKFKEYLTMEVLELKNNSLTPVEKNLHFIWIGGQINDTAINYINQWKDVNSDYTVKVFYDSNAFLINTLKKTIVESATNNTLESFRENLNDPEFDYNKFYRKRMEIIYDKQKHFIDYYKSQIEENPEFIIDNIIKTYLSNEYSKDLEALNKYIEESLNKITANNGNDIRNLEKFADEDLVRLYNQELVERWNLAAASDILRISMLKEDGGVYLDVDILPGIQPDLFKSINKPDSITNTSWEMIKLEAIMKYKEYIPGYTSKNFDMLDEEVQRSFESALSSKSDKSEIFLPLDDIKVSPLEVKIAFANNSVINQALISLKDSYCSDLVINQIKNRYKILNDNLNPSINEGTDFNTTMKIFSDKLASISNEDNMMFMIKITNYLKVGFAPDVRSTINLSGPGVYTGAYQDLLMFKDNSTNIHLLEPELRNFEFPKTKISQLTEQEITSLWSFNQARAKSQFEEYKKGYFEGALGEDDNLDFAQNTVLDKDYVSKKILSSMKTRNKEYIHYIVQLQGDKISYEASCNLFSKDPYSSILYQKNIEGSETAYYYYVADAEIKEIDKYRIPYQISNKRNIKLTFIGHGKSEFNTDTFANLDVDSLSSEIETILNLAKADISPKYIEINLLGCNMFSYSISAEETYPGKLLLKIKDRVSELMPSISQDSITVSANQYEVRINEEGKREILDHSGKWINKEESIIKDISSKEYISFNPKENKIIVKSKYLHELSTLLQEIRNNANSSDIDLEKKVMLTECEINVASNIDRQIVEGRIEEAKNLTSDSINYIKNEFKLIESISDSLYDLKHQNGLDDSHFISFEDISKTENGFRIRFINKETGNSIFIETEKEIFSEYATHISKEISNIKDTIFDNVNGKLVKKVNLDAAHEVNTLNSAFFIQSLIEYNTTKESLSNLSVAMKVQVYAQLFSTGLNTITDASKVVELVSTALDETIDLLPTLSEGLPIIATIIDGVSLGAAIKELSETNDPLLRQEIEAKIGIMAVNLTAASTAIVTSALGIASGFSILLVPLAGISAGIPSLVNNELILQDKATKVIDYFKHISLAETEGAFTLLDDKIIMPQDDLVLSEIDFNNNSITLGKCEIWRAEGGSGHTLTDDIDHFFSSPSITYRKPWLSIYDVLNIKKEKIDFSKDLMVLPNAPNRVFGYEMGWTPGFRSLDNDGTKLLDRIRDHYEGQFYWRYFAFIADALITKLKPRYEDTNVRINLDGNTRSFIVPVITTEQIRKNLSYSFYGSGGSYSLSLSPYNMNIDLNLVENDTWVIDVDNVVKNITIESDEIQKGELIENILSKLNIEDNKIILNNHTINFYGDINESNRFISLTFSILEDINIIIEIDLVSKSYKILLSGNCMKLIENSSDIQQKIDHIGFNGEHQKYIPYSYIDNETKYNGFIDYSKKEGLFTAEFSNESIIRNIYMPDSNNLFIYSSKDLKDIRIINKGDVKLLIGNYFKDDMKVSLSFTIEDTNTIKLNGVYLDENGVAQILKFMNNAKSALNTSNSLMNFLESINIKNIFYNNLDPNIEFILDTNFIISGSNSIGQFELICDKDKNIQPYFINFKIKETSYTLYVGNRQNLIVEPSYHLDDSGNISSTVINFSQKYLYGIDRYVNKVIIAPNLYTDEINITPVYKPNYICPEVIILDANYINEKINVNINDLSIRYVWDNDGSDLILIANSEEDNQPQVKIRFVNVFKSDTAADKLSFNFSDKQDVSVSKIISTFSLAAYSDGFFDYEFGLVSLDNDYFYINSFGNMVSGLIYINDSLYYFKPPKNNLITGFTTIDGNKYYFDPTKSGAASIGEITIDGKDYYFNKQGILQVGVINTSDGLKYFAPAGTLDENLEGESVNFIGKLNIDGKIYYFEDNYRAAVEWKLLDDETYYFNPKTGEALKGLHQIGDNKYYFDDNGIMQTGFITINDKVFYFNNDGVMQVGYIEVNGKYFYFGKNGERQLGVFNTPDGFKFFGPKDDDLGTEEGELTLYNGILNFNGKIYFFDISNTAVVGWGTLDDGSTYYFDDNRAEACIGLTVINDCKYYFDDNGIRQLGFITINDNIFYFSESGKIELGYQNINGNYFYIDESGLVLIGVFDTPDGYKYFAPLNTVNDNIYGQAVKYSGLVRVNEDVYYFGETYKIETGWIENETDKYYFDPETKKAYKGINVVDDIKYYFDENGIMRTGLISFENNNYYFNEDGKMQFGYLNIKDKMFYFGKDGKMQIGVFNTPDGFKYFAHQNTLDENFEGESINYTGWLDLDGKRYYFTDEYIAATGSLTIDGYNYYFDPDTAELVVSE
TcdB 1285-1804 with C-terminal Avitag (RBD toxin fragment), sequence (P18177 1285-1804): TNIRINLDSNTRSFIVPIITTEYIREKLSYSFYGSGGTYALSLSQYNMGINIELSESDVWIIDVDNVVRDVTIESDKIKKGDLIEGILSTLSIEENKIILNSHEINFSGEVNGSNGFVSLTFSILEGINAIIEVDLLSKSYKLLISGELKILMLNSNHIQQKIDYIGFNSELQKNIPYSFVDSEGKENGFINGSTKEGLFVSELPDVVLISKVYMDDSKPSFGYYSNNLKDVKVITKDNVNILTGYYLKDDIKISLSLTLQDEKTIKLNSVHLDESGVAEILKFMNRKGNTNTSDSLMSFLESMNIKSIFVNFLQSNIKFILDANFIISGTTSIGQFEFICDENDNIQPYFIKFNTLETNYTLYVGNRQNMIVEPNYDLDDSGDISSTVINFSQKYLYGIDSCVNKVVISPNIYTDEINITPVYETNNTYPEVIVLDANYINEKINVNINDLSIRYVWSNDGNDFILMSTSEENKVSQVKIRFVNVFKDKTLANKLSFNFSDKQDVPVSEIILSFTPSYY

B1: fzd13 (designed binder)
chain: AEKEVQELIDKALNTPDPKVASKYIISAVYVAAKARDPSLFQSALDTAKKL
Kd [1]: 5.55 pM | koff [1]: 0.00014 s⁻¹ | kon [1]: 2.53e+07 M⁻¹ s⁻¹

B2: cspg67 (designed binder)
chain: AEELAKKLEEMAEVFKEKGDEEGAKECLKAAKIVRRSKNEEFGKWCIKKAEERLKKL
IC50 of neutralization of TcdB2 in WT Vero cells (CSPG4-dependent entry), Figure S7B; 8-step 3-fold dilution series starting at 40 nM; mean across 2 independent replicates (TcdB2 (TcdB 027)): 1000 pM | Kd (full length TcdB): 1950 pM | koff (full length TcdB): 0.00387 s⁻¹ | kon (full length TcdB): 1.99e+06 M⁻¹ s⁻¹

B3: fzd24 (designed binder)
chain: GEKSKLELLCKMLLTKAKLTGKQKYKNDLKELIEYLNEKGYPDLAKEASAKLEEI
Kd [1]: 15.3 pM | koff [1]: 0.000649 s⁻¹ | kon [1]: 4.24e+07 M⁻¹ s⁻¹

B4: B4 (designed binder)
chain: TEEIIKEIKKMKEKGEKASSIIDLLKKAGYSEIAKKAELAALKSENMTEAAAEKAIEELK
Kd (biotinylated RBD of TcsL [2]): 56.9 pM | koff (biotinylated RBD of TcsL [2]): 0.000112 s⁻¹ | kon (biotinylated RBD of TcsL [2]): 1.98e+06 M⁻¹ s⁻¹

B5: B4-M79 (designed binder)
chain: TEEIIKEIKKMKEKGEKASSIIDLLKKAGYSEIAKKAELAALKSENMTEAAAEKAIEELKGSQVKLEESGGGLVQAGGSLKLSCAASGSTFSSSSVGWYRQAPGQQRELVAAITSGGSTNTADSVKGRFTMSRDNAKNTVYLQMRDLKPEDTAVYYCNVAGRNWVPISRYSPGPYWGQGTQVTVSS
Kd (biotinylated RBD of TcsL [3]): 9.9 pM

B6: fzd48 (designed binder)
chain: KEELEKMIEELKKLIENGDKENFIKLFDEAFKKAKESRDPRTIASVWTLVLEFKNKN
Kd [1]: 0.00975 pM | koff [1]: 3.33e-07 s⁻¹ | kon [1]: 3.42e+07 M⁻¹ s⁻¹

B7: F4 (designed binder)
chain: NEELIKEIKKLLKEGKPASEILELLKKAGKEEIAKEAEKAALSSYDMTKAAAEEAIKKLK
Kd (biotinylated RBD of TcsL [4]): 4230 pM | Kd (biotinylated RBD of TcsL [2]): 4280 pM | koff (biotinylated RBD of TcsL [2]): 0.00928 s⁻¹ | kon (biotinylated RBD of TcsL [2]): 2.17e+06 M⁻¹ s⁻¹

B8: cspg4 (designed binder)
chain: ENKLARAVVTVNKSWLATQLFVRLYRLCKAGDPRCEEVAEKLRKVLELQGVPETDIELVVEVAKG
Kd (full length TcdB): 1980 pM | koff (full length TcdB): 0.0378 s⁻¹ | kon (full length TcdB): 1.91e+07 M⁻¹ s⁻¹

B9: ss2cspg18 (designed binder)
chain: MDEKVEKLKECLEKLKEKGDIKGVIDTERAIRICERSRHKEFCEWAIEKCENRIKES
notes: also called c18; dual disulfide version of cspg18
Kd (full length TcdB): 865 pM | koff (full length TcdB): 0.00164 s⁻¹ | kon (full length TcdB): 1.9e+06 M⁻¹ s⁻¹

B10: ss2cspg35 (designed binder)
chain: B9 chain with K4L, I21L, I25K, N52A
notes: also called dual disulfide version of cspg35
Kd (full length TcdB): 480 pM | koff (full length TcdB): 8.03e-05 s⁻¹ | kon (full length TcdB): 167000 M⁻¹ s⁻¹

B11: ss2cspg27 (designed binder)
chain: B9 chain with K4L, I25T, R29K, K49A, N52A
notes: also called c27; dual disulfide version of cspg27
Kd (full length TcdB): 507 pM | koff (full length TcdB): 0.000101 s⁻¹ | kon (full length TcdB): 199000 M⁻¹ s⁻¹

Reference: article PMC12501149 (Proceedings of the National Academy of Sciences of the …, 2025)
